Consider one molecule from PMC10341550 (2023).

The experiment deals with ROCK2 (Homo sapiens, UniProt O75116). The experiment is described as follows: competition fluorescence polarization.
ROCK2, sequence (O75116 whole entry): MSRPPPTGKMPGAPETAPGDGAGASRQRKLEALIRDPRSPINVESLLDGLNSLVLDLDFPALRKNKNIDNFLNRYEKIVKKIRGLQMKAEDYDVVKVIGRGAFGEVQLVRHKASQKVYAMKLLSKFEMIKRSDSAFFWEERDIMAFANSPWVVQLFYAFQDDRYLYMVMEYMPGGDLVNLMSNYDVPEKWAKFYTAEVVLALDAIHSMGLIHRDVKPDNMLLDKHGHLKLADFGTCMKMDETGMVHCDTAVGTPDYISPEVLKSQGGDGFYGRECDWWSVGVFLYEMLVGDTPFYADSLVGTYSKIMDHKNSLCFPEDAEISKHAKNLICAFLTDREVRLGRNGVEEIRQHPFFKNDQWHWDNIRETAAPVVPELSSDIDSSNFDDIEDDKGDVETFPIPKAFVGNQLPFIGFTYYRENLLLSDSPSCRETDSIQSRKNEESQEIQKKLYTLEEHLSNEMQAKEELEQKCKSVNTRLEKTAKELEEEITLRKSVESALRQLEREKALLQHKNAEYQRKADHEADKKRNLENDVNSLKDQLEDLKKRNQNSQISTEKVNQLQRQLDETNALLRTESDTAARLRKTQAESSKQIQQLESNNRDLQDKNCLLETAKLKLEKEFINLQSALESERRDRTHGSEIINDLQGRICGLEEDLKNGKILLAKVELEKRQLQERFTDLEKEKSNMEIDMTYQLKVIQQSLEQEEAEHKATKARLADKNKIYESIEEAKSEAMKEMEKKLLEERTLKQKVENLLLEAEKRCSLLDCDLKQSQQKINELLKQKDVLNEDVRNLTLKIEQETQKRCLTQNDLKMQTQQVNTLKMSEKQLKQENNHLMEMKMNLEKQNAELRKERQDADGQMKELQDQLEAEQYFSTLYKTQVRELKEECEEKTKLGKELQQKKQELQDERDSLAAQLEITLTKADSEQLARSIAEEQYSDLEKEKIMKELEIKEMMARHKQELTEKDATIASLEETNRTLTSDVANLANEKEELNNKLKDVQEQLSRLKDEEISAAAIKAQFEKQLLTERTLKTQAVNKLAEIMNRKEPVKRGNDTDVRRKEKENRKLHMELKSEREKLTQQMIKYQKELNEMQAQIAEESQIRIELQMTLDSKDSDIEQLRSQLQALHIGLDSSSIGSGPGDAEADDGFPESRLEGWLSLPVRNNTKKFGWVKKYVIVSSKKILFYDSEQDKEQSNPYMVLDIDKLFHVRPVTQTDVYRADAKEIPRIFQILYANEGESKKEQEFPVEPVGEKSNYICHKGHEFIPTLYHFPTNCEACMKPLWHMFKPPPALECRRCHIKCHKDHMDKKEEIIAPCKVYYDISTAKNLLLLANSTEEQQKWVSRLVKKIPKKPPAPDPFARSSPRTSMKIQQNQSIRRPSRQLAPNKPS

B1: APP 646-695 (peptide)
chain: ADRGLTTRPGSGLTNIKTEEISEVKMDAEFRHDSGYEVHHQKLVFFAEDV
modifications: BACE1 C-terminal peptide present
In the case of B1, the Kd (as a rule, the concentration at which binding is half-saturated) came to 3.5 nM.
